The source of these data is patent US10052364B2, “Osteocalcin as a treatment for cognitive disorders” (THE TRUSTEES OF COLUMBIA UNIVERSITY IN THE CITY OF NEW YORK, priority 2013, dated 2018).

One data set deals with WT mice. In words: ICV infusion in adult WT mice, D/LT and EPMT tests. It counts as in vivo, mouse. To be noted: ICV 3 or 10 ng/hour for one month. How it is done:
FIG. 8. Osteocalcin improves cognitive function in adult wild-type (WT) mice. Results from dark and light (DLT) and elevated plus maze tests (EPMT) performed in 3-month old WT mice infused ICV with vehicle (PBS) or Ocn (3, 10, 30 ng/hour) are shown. (A) DLT measuring the latency to enter, the number of entries, and the time spend in lit compartment. (B) EPMT measuring the number of entries into open arms and the time spend in lit compartments.
Each mouse was allowed to explore the apparatus for 5 min. Global activity was assessed by measuring the number of entries […] (David et al, 2009, Neuron 62:479-493). Anxiety was assessed by comparing the time spent in the open arms.
The test was performed in a quiet, darkened room. Mice were individually housed in cages containing a handful of bedding from their home cage and acclimated to the room at least 1 h before the test. Naïve mice were placed individually in the testing chamber in the dark compartment. The test was 5 min in duration, and time spent and number of entries in light compartments were recorded a highly trained observer, blind to the genotype of the mice. […]

Data set [1] is described as follows: Blood brain barrier crossing: subcutaneous osteocalcin infusion, content measured in blood, bone and parts of the brain by ELISA. It counts as in vivo, mouse. The following applies: subcutaneous pump, uncarboxylated osteocalcin 50 ng/hour, seven days, three-month-old Osteocalcin-/- mice. The method, then: FIG. 3. Osteocalcin binds to neurons in the brain. (A) Measurement of the total osteocalcin in 3 month-old Osteocalcin^−/− mice infused subcutaneously for 7 days with either uncarboxylated osteocalcin (300 ng/hour, right panel) or PBS (left panel). Osteocalcin levels were measured in bone, serum, and different parts of the brain (cortex, midbrain, hypothalamus, brainstem, and cerebellum). (B) Subcutaneous infusion of leptin ([…], right panel) or PBS (left panel) for 7 days in ob/ob mice. Leptin levels were measured in serum, cortex, midbrain, hypothalamus, brainstem, and cerebellum. […]
Osteocalcin^−/−, Gprc6a^−/−, Osteocalcin-mCherry, and Osteocalcin floxed mice have been previously described (Ducy et al., 1996, Nature 382:448-452; Oury et al., 2011, Cell 144:796-809). Mouse genotypes were determined by PCR. […] Leptin and osteocalcin content in sera and tissues were determined by ELISA.
To understand how this behavioral phenotype develops, whether osteocalcin crosses the blood brain barrier (BBB) was tested by installing pumps that subcutaneously delivered vehicle or uncarboxylated osteocalcin (50 ng/hour) in three-month-old Osteocalcin^−/− mice. […] Seven days later, osteocalcin and leptin content were measured in blood, bone, and in various parts of the brain in Osteocalcin−/− and ob/ob mice, respectively. […]

B1: uncarboxylated osteocalcin: Recombinant osteocalcin bacterially produced, cleaved from the GST subunit; completely undercarboxylated at all three sites (protein, listed as Homo sapiens)
chain: MRALTLLALLALAALCIAGQAGAKPSGAESSKGAAFVSKQEGSEVVKRPRRYLYQWLGAPVPYPDPLEPRREVCELNPDCDELADHIGFQEAYRRFYGPV
modifications: uncarboxylated
notes: Recombinant osteocalcin bacterially produced, cleaved from the GST subunit; completely undercarboxylated at all three sites
Regarding B1, the “exploration of the lit compartment and open arms in D/LT and EPM tests” value with WT mice (WT mice) is listed as “increase in the exploration”. Also, in the data set on WT mice (WT mice implanted at 2 months), the “anxiety-like behavior (D/LT and EPMT)” value is recorded as “decrease in anxiety-like behavior”. The “osteocalcin concentration in brainstem, thalamus and hypothalamus relative to that observed in serum” value in data set [1] is on record as about 50%.
